T1: ADAMTS4 (human, UniProt O75173 213-685, limits assumed)
T1 sequence (looked up): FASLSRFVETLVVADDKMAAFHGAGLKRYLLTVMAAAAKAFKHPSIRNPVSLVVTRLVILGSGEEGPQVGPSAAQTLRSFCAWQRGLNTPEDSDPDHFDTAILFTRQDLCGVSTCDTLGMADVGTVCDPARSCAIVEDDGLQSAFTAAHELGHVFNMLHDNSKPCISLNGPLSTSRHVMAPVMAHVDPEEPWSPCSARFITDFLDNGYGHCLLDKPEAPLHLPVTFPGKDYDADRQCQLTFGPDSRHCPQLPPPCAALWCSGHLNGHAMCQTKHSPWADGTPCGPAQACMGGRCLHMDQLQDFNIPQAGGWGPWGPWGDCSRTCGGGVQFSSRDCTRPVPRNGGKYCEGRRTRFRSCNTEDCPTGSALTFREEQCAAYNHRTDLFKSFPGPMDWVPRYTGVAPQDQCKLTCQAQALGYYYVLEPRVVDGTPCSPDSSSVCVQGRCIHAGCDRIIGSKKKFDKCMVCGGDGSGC

T2: ADAMTS5 (human, UniProt Q9UNA0 262-622, limits assumed)
T2 sequence (looked up): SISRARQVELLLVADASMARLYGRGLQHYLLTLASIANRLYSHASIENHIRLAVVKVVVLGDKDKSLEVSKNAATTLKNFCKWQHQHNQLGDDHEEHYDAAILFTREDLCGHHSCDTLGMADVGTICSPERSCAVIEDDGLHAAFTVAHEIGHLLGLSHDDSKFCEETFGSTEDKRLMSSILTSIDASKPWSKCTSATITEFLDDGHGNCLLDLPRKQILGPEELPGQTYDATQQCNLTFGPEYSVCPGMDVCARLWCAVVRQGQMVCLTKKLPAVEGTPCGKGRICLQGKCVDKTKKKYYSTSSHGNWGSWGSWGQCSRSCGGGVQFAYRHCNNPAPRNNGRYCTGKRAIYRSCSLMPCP

B1: Variant A2M, bait region SEQ ID NO 115 (other)
chain: SVSGKPQYMVLVPSLLHTETTEKGCVLLSYLNETVTVSASLESVRGNRSLFTDLEAENDVLHCVAFAVPKSSSNEEVMFLTVQVKGPTQEFKKRTTVMVKNEDSLVFVQTDKSIYKPGQTVKFRVVSMDENFHPLNELIPLVYIQDPKGNRIAQWQSFQLEGGLKQFSFPLSSEPFQGSYKVVVQKKSGGRTEHPFTVEEFVLPKFEVQVTVPKIITILEEEMNVSVCGLYTYGKPVPGHVTVSICRKYSDASDCHGEDSQAFCEKFSGQLNSHGCFYQQVKTKVFQLKRKEYEMKLHTEAQIQEEGTVVELTGRQSSEITRTITKLSFVKVDSHFRQGIPFFGQVRLVDGKGVPIPNKVIFIRGNEANYYSNATTDEHGLVQFSINTTNVMGTSLTVRVNYKDRSPCYGYQWVSEEHEEAHHTAYLVFSPSKSFVHLEPMSHELPCGHTQTVQAHYILNGGTLLGLKKLSFYYLIMAKGGIVRTGTHGLLVKQEDMKGHFSISIPVKSDIAPVARLLIYAVLPTGDVIGDSAKYDVENCLANKVDLSFSPSQSLPASHAHLRVTAAPQSVCALRAVDQSVLLMKPDAELSASSVYNLLPEKDLTGFPGPLNDQDDEDCINRHNVYINGITYTPVSSTNEKDMYSFLEDMGLKAFTNSKIRKPKMCPQLEEEEGLGSKEEEGLGSPKEEEGLGSKEEEGLGSPKEEEGLGSKLRKYFPETWIWDLVVVNSAGVAEVGVTVPDTITEWKAGAFCLSEDAGLGISSTASLRAFQPFFVELTMPYSVIRGEAFTLKATVLNYLPKCIRVSVQLEASPAFLAVPVEKEQAPHCICANGRQTVSWAVTPKSLGNVNFTVSAEALESQELCGTEVPSVPEHGRKDTVIKPLLVEPEGLEKETTFNSLLCPSGGEVSEELSLKLPPNVVEESARASVSVLGDILGSAMQNTQNLLQMPYGCGEQNMVLFAPNIYVLDYLNETQQLTPEIKSKAIGYLNTGYQRQLNYKHYDGSYSTFGERYGRNQGNTWLTAFVLKTFAQARAYIFIDEAHITQALIWLSQRQKDNGCFRSSGSLLNNAIKGGVEDEVTLSAYITIALLEIPLTVTHPVVRNALFCLESAWKTAQEGDHGSHVYTKALLAYAFALAGNQDKRKEVLKSLNEEAVKKDNSVHWERPQKPKAPVGHFYEPQAPSAEVEMTSYVLLAYLTAQPAPTSEDLTSATNIVKWITKQQNAQGGFSSTQDTVVALHALSKYGAATFTRTGKAAQVTIQSSGTFSSKFQVDNNNRLLLQQVSLPELPGEYSMKVTGEGCVYLQTSLKYNILPEKEEFPFALGVQTLPQTCDEPKAHTSFQISLSVSYTGSRSASNMAIVDVKMVSGFIPLKPTVKMLERSNHVSRTEVSSNHVLIYLDKVSNQTLSLFFTVLQDVPVRDLKPAIVKVYDYYETDEFAIAEYNAPCSKDLGNADYKDDDDKGASHHHHHH
B2: Variant A2M, bait region SEQ ID NO 113 (other)
chain: SVSGKPQYMVLVPSLLHTETTEKGCVLLSYLNETVTVSASLESVRGNRSLFTDLEAENDVLHCVAFAVPKSSSNEEVMFLTVQVKGPTQEFKKRTTVMVKNEDSLVFVQTDKSIYKPGQTVKFRVVSMDENFHPLNELIPLVYIQDPKGNRIAQWQSFQLEGGLKQFSFPLSSEPFQGSYKVVVQKKSGGRTEHPFTVEEFVLPKFEVQVTVPKIITILEEEMNVSVCGLYTYGKPVPGHVTVSICRKYSDASDCHGEDSQAFCEKFSGQLNSHGCFYQQVKTKVFQLKRKEYEMKLHTEAQIQEEGTVVELTGRQSSEITRTITKLSFVKVDSHFRQGIPFFGQVRLVDGKGVPIPNKVIFIRGNEANYYSNATTDEHGLVQFSINTTNVMGTSLTVRVNYKDRSPCYGYQWVSEEHEEAHHTAYLVFSPSKSFVHLEPMSHELPCGHTQTVQAHYILNGGTLLGLKKLSFYYLIMAKGGIVRTGTHGLLVKQEDMKGHFSISIPVKSDIAPVARLLIYAVLPTGDVIGDSAKYDVENCLANKVDLSFSPSQSLPASHAHLRVTAAPQSVCALRAVDQSVLLMKPDAELSASSVYNLLPEKDLTGFPGPLNDQDDEDCINRHNVYINGITYTPVSSTNEKDMYSFLEDMGLKAFTNSKIRKPKMCPQLEEGEARGSTAQEAGEGPKEEEGLGSSELEGRGSPVSQELGQRKLRKYFPETWIWDLVVVNSAGVAEVGVTVPDTITEWKAGAFCLSEDAGLGISSTASLRAFQPFFVELTMPYSVIRGEAFTLKATVLNYLPKCIRVSVQLEASPAFLAVPVEKEQAPHCICANGRQTVSWAVTPKSLGNVNFTVSAEALESQELCGTEVPSVPEHGRKDTVIKPLLVEPEGLEKETTFNSLLCPSGGEVSEELSLKLPPNVVEESARASVSVLGDILGSAMQNTQNLLQMPYGCGEQNMVLFAPNIYVLDYLNETQQLTPEIKSKAIGYLNTGYQRQLNYKHYDGSYSTFGERYGRNQGNTWLTAFVLKTFAQARAYIFIDEAHITQALIWLSQRQKDNGCFRSSGSLLNNAIKGGVEDEVTLSAYITIALLEIPLTVTHPVVRNALFCLESAWKTAQEGDHGSHVYTKALLAYAFALAGNQDKRKEVLKSLNEEAVKKDNSVHWERPQKPKAPVGHFYEPQAPSAEVEMTSYVLLAYLTAQPAPTSEDLTSATNIVKWITKQQNAQGGFSSTQDTVVALHALSKYGAATFTRTGKAAQVTIQSSGTFSSKFQVDNNNRLLLQQVSLPELPGEYSMKVTGEGCVYLQTSLKYNILPEKEEFPFALGVQTLPQTCDEPKAHTSFQISLSVSYTGSRSASNMAIVDVKMVSGFIPLKPTVKMLERSNHVSRTEVSSNHVLIYLDKVSNQTLSLFFTVLQDVPVRDLKPAIVKVYDYYETDEFAIAEYNAPCSKDLGNADYKDDDDKGASHHHHHH
B3: Variant A2M, bait region SEQ ID NO 114 (other)
chain: SVSGKPQYMVLVPSLLHTETTEKGCVLLSYLNETVTVSASLESVRGNRSLFTDLEAENDVLHCVAFAVPKSSSNEEVMFLTVQVKGPTQEFKKRTTVMVKNEDSLVFVQTDKSIYKPGQTVKFRVVSMDENFHPLNELIPLVYIQDPKGNRIAQWQSFQLEGGLKQFSFPLSSEPFQGSYKVVVQKKSGGRTEHPFTVEEFVLPKFEVQVTVPKIITILEEEMNVSVCGLYTYGKPVPGHVTVSICRKYSDASDCHGEDSQAFCEKFSGQLNSHGCFYQQVKTKVFQLKRKEYEMKLHTEAQIQEEGTVVELTGRQSSEITRTITKLSFVKVDSHFRQGIPFFGQVRLVDGKGVPIPNKVIFIRGNEANYYSNATTDEHGLVQFSINTTNVMGTSLTVRVNYKDRSPCYGYQWVSEEHEEAHHTAYLVFSPSKSFVHLEPMSHELPCGHTQTVQAHYILNGGTLLGLKKLSFYYLIMAKGGIVRTGTHGLLVKQEDMKGHFSISIPVKSDIAPVARLLIYAVLPTGDVIGDSAKYDVENCLANKVDLSFSPSQSLPASHAHLRVTAAPQSVCALRAVDQSVLLMKPDAELSASSVYNLLPEKDLTGFPGPLNDQDDEDCINRHNVYINGITYTPVSSTNEKDMYSFLEDMGLKAFTNSKIRKPKMCPQLEAQEAGEGKEEEGLGSPVSQELGQRSELEGRGSPTEGEARGSKLRKYFPETWIWDLVVVNSAGVAEVGVTVPDTITEWKAGAFCLSEDAGLGISSTASLRAFQPFFVELTMPYSVIRGEAFTLKATVLNYLPKCIRVSVQLEASPAFLAVPVEKEQAPHCICANGRQTVSWAVTPKSLGNVNFTVSAEALESQELCGTEVPSVPEHGRKDTVIKPLLVEPEGLEKETTFNSLLCPSGGEVSEELSLKLPPNVVEESARASVSVLGDILGSAMQNTQNLLQMPYGCGEQNMVLFAPNIYVLDYLNETQQLTPEIKSKAIGYLNTGYQRQLNYKHYDGSYSTFGERYGRNQGNTWLTAFVLKTFAQARAYIFIDEAHITQALIWLSQRQKDNGCFRSSGSLLNNAIKGGVEDEVTLSAYITIALLEIPLTVTHPVVRNALFCLESAWKTAQEGDHGSHVYTKALLAYAFALAGNQDKRKEVLKSLNEEAVKKDNSVHWERPQKPKAPVGHFYEPQAPSAEVEMTSYVLLAYLTAQPAPTSEDLTSATNIVKWITKQQNAQGGFSSTQDTVVALHALSKYGAATFTRTGKAAQVTIQSSGTFSSKFQVDNNNRLLLQQVSLPELPGEYSMKVTGEGCVYLQTSLKYNILPEKEEFPFALGVQTLPQTCDEPKAHTSFQISLSVSYTGSRSASNMAIVDVKMVSGFIPLKPTVKMLERSNHVSRTEVSSNHVLIYLDKVSNQTLSLFFTVLQDVPVRDLKPAIVKVYDYYETDEFAIAEYNAPCSKDLGNADYKDDDDKGASHHHHHH

How the values were obtained:
Assay in all cases: cell-based or functional assay
MMP13 = MMP13 (human, UniProt P45452 104-471, limits assumed)
ADAMTS4 = target: T1, ADAMTS4
ADAMTS5 = target: T2, ADAMTS5

| Binder | Protease Inhibition (% of WT) (MMP13) | Protease Inhibition (% of WT) (ADAMTS4) | Protease Inhibition (% of WT) (ADAMTS5) |
| --- | --- | --- | --- |
| B1 | 78 % of WT | 108 % of WT | 163 % of WT |
| B2 | 27 % of WT | 115 % of WT | 92 % of WT |
| B3 | 75 % of WT | 118 % of WT | 237 % of WT |

Reference: patent US20230250154A1 (CYTONICS, published 2023)
